Values of other authors as cited in patent US20260263563A1, “Method of Treatment of a Thoracolumbar Deformity in a Human Subject with Achondroplasia” (Ascendis Pharma Growth Disorders A/S, priority 2023, published 2026).
Positions of bridges follow the written chain, without caps; N, C: chain ends. No end group written: not given here.

Conditions: in vivo; cited from earlier work

Substance: Vosoritide (PGQEHPNARKYKGANKKGLSKGCFGLKLDRIGSMSGLGC; disulfide 23-39)
- reported t½: about 28 minutes
